Experimental data as given in publication PMC8322138, “BRCA2 binding through a cryptic repeated motif to HSF2BP oligomers does not impact meiotic recombination” (Nature Communications, 2021).
Several values for one entry are separate records, joined by “and”; a condition that tells them apart may be missing. Equal values may be shown once.

T1: armadillo domain of HSF2BP, from aa 122 to aa 334 (ARM) (human, UniProt O75031 122-334)
T1 construct: Free ARM is a dimer (SEC-MALS); four ARM with two F15X in the complex; A selenomethionine-labelled form was used for the deposited crystal structure; also called HSF2BP ARM; H3 (recombinant); source: E. coli BL21 DE3 Rosetta2, purified (HisTrap, TEV cleavage, SEC)
T1 sequence (looked up): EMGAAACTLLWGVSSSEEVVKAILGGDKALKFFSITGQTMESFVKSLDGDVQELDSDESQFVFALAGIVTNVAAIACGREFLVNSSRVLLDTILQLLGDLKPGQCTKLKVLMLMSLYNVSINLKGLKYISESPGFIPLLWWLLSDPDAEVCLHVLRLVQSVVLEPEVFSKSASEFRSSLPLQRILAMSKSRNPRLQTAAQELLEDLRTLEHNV

T2: Human full-length HSF2BP WT (human, UniProt O75031 1-334)
T2 construct: HSF2BP, human, full length, wild type; pETM11 (6xHis-TEV) vector; purified as in Brandsma et al., Cell Rep 2019; also called HSF2BP FL; HFS2BP; source: E. coli BL21 DE3 Rosetta2, purified (HisTrap, TEV cleavage, SEC)
T2 sequence (looked up): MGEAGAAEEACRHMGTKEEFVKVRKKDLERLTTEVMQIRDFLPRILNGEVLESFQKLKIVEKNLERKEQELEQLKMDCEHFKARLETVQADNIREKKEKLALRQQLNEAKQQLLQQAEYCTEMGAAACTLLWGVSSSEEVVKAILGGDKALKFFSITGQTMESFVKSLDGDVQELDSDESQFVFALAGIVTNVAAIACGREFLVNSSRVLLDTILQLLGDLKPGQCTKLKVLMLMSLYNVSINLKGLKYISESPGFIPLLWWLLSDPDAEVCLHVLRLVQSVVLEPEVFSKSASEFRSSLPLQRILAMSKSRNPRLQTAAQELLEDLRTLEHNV

T3: Human full-length HSF2BP WT (human), O75031
T3 chain: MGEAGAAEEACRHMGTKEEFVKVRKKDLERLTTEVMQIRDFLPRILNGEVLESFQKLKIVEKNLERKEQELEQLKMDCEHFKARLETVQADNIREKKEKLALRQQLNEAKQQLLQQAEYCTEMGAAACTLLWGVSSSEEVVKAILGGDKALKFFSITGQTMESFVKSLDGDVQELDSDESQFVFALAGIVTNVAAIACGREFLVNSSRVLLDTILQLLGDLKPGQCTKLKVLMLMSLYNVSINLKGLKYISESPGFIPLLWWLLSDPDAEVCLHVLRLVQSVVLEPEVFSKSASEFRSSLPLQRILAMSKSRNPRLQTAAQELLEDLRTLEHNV


How the values were obtained:
Test in all cases: ITC; HSF2BP or ARM in the cell at 10-20 uM, BRCA2 fragment in the syringe at 40-100 uM; 293 K; 25 mM Tris pH 7.5, 250 mM NaCl, 5 mM beta-mercaptoethanol; two replicates
[1] = target: T1, armadillo domain of HSF2BP, from aa 122 …; settings: both partners purified
[2] = target: T2, Human full-length HSF2BP WT; settings: both partners purified
[3] = target: T3, Human full-length HSF2BP WT (human), …

Row | Kd [1] | dH [1] | stoichiometry N [1] | Kd [2] [nM] | dH [2] | stoichiometry N [2] | Kd [3] | dH [3] | stoichiometry N [3] | Binder
1 | 31 nM and 25 nM | -8.3 kcal/mol and -11.9 kcal/mol | 0.45 and 0.49 | 1.3 | -11 kcal/mol and -10.9 kcal/mol | 0.43 and 0.47 |  |  |  | Human BRCA2 fragment F0 (S2213-Q2342, C2332T) (domain or fragment, UniProt P51587 2213-2342, looked up, BRCA2, human, residues 2213-2342 with C2332T; pET-22b fusion: BRCA2 fragment, TEV site, GB1, 6xHis; residues of the TEV site may remain at the C-terminus after cleavage (surmise); 15N- or 15N/13C-labelled for NMR; also called BRCA2-F0; source: E. coli BL21 DE3 Star, purified (HisTrap, TEV cleavage, SEC); not shown: GB1, C-terminal, cleaved; His6, C-terminal, cleaved) STYSKDSENYFETEAVEIAKAFMEDDELTDSKLPSHATHSLFTCPENEEMVLSNSRIGKRRGEPLILVGEPSIKRNLLNEFDRIIENQEKSLKASKSTPDGTIKDRRLFMHHVSLEPITTVPFRTTKERQ
2 |  |  |  |  |  |  | 2100 nM and 1500 nM | -1.8 kcal/mol and -1.7 kcal/mol | 0.9 and 0.89 | DGTIKDRRLFMHHVSLEPITTVPFRTTKERQ (modifications not checked) [BRCA2 peptide F15X∆12 (D2312-E2342)]
